In the supplement of paper PMC10567573:
± gives the standard deviation.

Test: protein stability index of a GFP-peptide fusion (GPS, HEK-293T) (PSI 1-6); higher = more stable
[1] = treatment: DMSO, c terminus: a fixed tail appended
[2] = treatment: MLN4924 1 uM, 8 h, c terminus: a fixed tail appended
[3] = treatment: DMSO, c terminus: native
[4] = treatment: MLN4924 1 uM, 8 h, c terminus: native
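Note: 24-mer peptide tiles fused after GFP, lentivirally expressed, FACS-sorted into six equal bins by GFP/DsRed ratio, decoded by Illumina sequencing, PSI is the read-weighted mean bin number.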

Sequence | protein stability index [1] | protein stability index [2] | protein stability index [3] | protein stability index [4]
FVKYLIRPQPWLEKEIEEATKKLG [FUT8] | 2.31 ± 0.29 | 2.47 ± 0.17 |  | 
MGTRRKHLGCAVYQDMIYAVGGRD [KLHL20] | 2.33 ± 0.27 | 2.29 ± 0.56 |  | 
QYRWDMMHRLGEPQARMREENMER [BEX1] | 4.1 ± 0.37 | 4.23 ± 0.16 |  | 
FSTQYRCFSVSMLAGPNDRSDVEK [UFD1] | 2.68 ± 0.39 | 3.01 ± 0.57 |  | 
RNERSIQEKLQVLMAEGLLPAVKV [SMG5] | 2.69 ± 0.26 | 2.6 ± 0.22 |  | 
STPLSPAYISLVEEEDQHMKLSLG [KLHL13] | 4.27 ± 0.16 | 4.28 ± 0.19 |  | 
GSGAPSPLSKSSPATTVTSPNSTP [SNAP91] | 5.44 ± 0.16 | 5.4 ± 0.16 |  | 
FNGKGKKIRKPRTIYCSLQLQALN [DLX1] | 2.38 ± 0.5 | 2.75 ± 0.31 |  | 
FEPVKSFFKGLVEAVESTLQTPLD [TRIM14] | 2.19 ± 0.2 | 2.4 ± 0.23 |  | 
AVPAAATRTTSFKGTSPSSKYVKL [KCTD10] | 3.87 ± 0.2 | 3.99 ± 0.28 |  | 
GRSNAPITAPTEVEVMDETNCQKV [CSNK1G3] | 5.55 ± 0.15 | 5.59 ± 0.13 |  | 
FRVNCYPGIDIREDLAQKLNLEED [HESX1] | 3.52 ± 0.34 | 3.69 ± 0.35 |  | 
VNQPNNNGFTPLHFAAASTHGALC [ANKRD44] | 2.99 ± 0.3 | 3.06 ± 0.33 |  | 
LQCDAVNLAFGRRCEELEDARYKL [TEKT4] | 3.74 ± 0.26 | 3.64 ± 0.31 |  | 
LNVDAAVQQWLQKGTPASKLILGM [CHIT1] | 2.21 ± 0.36 | 2.25 ± 0.39 |  | 
PGESLECPAELRPQVPQPPSPAAV [TRAF3IP2] | 5.31 ± 0.077 | 5.18 ± 0.43 |  | 
HGAHKAEKKLFECLTCGKSFRQGM [ZNF263] | 2.67 ± 0.27 | 2.78 ± 0.25 |  | 
STDTAVTNEWEKRLSTSPVRLAAR [EPB41L3] | 4.3 ± 0.26 | 4.44 ± 0.18 |  | 
MLQKPKSVKLRALRSPRKFGVAGR [DFFB] | 2.94 ± 0.27 | 3.26 ± 0.35 |  | 
NEPSINFYKRRGASDLSSEEGWRL [SAT1] | 3.69 ± 0.4 | 3.84 ± 0.17 |  | 
YLGSAYHASKCEFLANLHITALLN [DUSP5] | 2.58 ± 0.69 | 2.61 ± 0.47 |  | 
GGGSGSAPGPSRIADYLLLPLAER [TRIB1] | 3.62 ± 0.48 |  |  | 
DNLSDLVMVRWNKSLEWSPWNCIL [IQUB] | 2.56 ± 0.76 | 2.39 ± 0.34 |  | 

Sequence | protein stability index [1] | protein stability index [2] | protein stability index [3] | protein stability index [4]
DSDDPSVTLELSQLSMLPHLADLV [VDR] | 3.41 ± 0.31 | 3.62 ± 0.33 |  | 
LEERRVKEVVKKHSQFIGYPITLY [HSP90AB1] | 2.48 ± 0.068 |  |  | 
VVKVISTIPATLLVDHVGSKTFLC [SLC2A12] | 2.95 ± 0.43 | 2.75 ± 0.37 |  | 
MAVALGCAIQASLNQGSVFQEYDT [ZNF449] | 3.91 ± 0.54 | 2.88 ± 1.2 |  | 
YTPTAEDSAQMQNGGPSTPPASPP [ANKRD40] | 5.27 ± 0.22 | 5.16 ± 0.2 |  | 
ERLVVLDYIIRNTDRGNDNWLIKY [PI4K2A] | 2.2 ± 0.65 | 2.49 ± 0.65 |  | 
QEGWIHHLARHAVACFLTRGDLWI [CRY1] | 3.05 ± 0.48 | 2.89 ± 0.44 |  | 
IKEVQKGGPADLAGLEDEDVIIEV [PDZK1] | 2.22 ± 0.27 | 2.49 ± 0.12 |  | 
LKIFTEDLPEVESLPRDRVLGFLI [VPS39] | 2.25 ± 0.49 | 2.23 ± 0.43 |  | 
ITMYAVGVGKAIEEELQEIASEPT [MATN2] | 3.18 ± 0.13 | 3.16 ± 0.19 |  | 
TFIVSCKFSPDGKYVVSGFDVDHG [WDR88] | 2.79 ± 0.39 | 2.81 ± 0.53 |  | 
KKKSVAMHTNYLSACSFTNSDMQI [GNB5] | 2.8 ± 0.12 | 2.8 ± 0.14 |  | 
GKKYNWSCDDLMGGGGLHSVGTYI [GFOD1] | 2.13 ± 0.35 | 2.33 ± 0.29 |  | 
QVTAPGAPPLQAETPGSAVDYPLH [TNXB] | 4.45 ± 0.087 | 5.292 ± 0.007 |  | 
EDDWPRDVSLPRGAFPPRGPRPVQ [CDK4] | 4.57 ± 0.18 | 4.6 ± 0.24 |  | 
LHFIATNYLIFSQKPEFQDLSVEE [RHOBTB3] | 2.5 ± 0.77 | 2.15 ± 0.38 |  | 
KEKANSLKNEIQEVEELDNWQPAV [SPATS1] | 5.24 ± 0.2 | 5.25 ± 0.27 |  | 
TAPLPMPEGPEPAAPGKQPGRGHT [ELOA2] | 5.53 ± 0.15 | 5.27 ± 0.2 |  | 
IGQVHEEFKQNIENVSVEMLLRKF [FCHO1] | 3.05 ± 0.3 | 3.32 ± 0.23 |  | 
LRRHAGLLDGLARRVGILGEELAD [SCARA5] | 3.37 ± 0.17 | 3.34 ± 0.18 |  | 
NVTNLEGGPGRQTTSPNVLWPTPG [ESR2] | 3.17 ± 0.35 | 3.17 ± 0.37 |  | 
PRASISHVTCVDQSEHTMVLRCQL [C2CD2L] | 2.34 ± 0.26 | 2.26 ± 0.28 |  | 
LDKKVEKVTISNRLVSSPCCIVTS [HSP90AB1] | 3.28 ± 0.34 | 2.98 ± 0.27 |  | 

Sequence | protein stability index [1] | protein stability index [2] | protein stability index [3] | protein stability index [4]
RWLMVKIFLILIVFFIIFVVFLA [STX5] |  |  | 4.3 ± 0.23 | 4.31 ± 0.33
KSNNRLKSLSIQYLELDRLVWRNS [FBXO39] | 2.38 ± 0.18 | 2.4 ± 0.3 |  | 
KQYQQRAFGWFRCSSCQRSWASAQ [RTP4] | 2.39 ± 0.34 | 2.25 ± 0.54 |  | 
DDDDHDDHEDNDKMNDSEGMDPER [NOL4L] | 5.54 ± 0.29 | 5.54 ± 0.23 |  | 
AQLFMDHLFAGAEVILLVVMAYDR [OR4A15] | 2.2 ± 0.74 | 2.75 ± 1 |  | 
KATFMYEQFPELMNMLWSRMLKDN [CLINT1] | 2.28 ± 1.1 | 2.37 ± 0.4 |  | 
DALTKLEQGEPLWTLEDEIHSPAH [ZNF649] | 3.49 ± 0.35 | 3.65 ± 0.24 |  | 
NQAGYFMLPTVITDIKDESCCMTE [ALDH8A1] | 3.5 ± 0.13 | 3.71 ± 0.43 |  | 
QQPPQQQPSQQQQPPPQEEPGTPS [KLHL14] | 5.67 ± 0.13 | 5.61 ± 0.4 |  | 
RLLLAGAEVQAKLENAEVLELTVR [HES6] | 2.37 ± 0.38 | 2.63 ± 0.49 |  | 
VVPSYIPLVKKHCDDSFTPQEKLW [CPOX] | 2.93 ± 0.15 | 2.98 ± 0.35 |  | 
VNLFLHFTVNPKPRVEYIDRPRCC [BTBD1] | 3.43 ± 0.18 | 3.12 ± 0.28 |  | 
SDSMHIEDVEAVQKLQDVLHEALQ [ESRRG] | 3.42 ± 0.29 | 3.54 ± 0.16 |  | 
KTGILILILSIIFIEGYCTPEEVI [MAGEA10] | 3.53 ± 0.9 | 2.63 ± 0.36 |  | 
QPRKKYVQRKSDFDQTVFQEVFEP [NETO1] | 4.14 ± 0.22 | 4.26 ± 0.2 |  | 
LLTTSPVFPHYIEKPLGRVGVFLD [TRIM43] | 2.08 ± 0.12 | 2.31 ± 0.25 |  | 
DNSLINQIENLNIQVEDIRIRAIL [LOXL2] | 2.59 ± 0.25 | 2.66 ± 0.17 |  | 
GVIRMWADEGSRNSRFQMLFTSFQ [NETO1] | 2.34 ± 0.4 | 2.27 ± 0.28 |  | 
RKQLQPTHCKYEGPRKARRLWFA |  |  | 2.85 ± 0.39 | 3.04 ± 0.13
LHRILHHKHVVQFYHYFEDKENIY [PLK2] | 2.58 ± 0.51 | 2.32 ± 0.38 |  | 
SRPSAPFTEASMMMSLTKLADKEL [ESR2] | 3.97 ± 0.4 | 3.97 ± 0.068 |  | 
KSSSVDSELTSLCQSVLEDFNLCL [SMG5] | 2.95 ± 0.25 | 2.97 ± 0.3 |  | 
LARADLEMQIENLKEELAYLKKNH [KRT17] | 3.12 ± 0.35 | 3.21 ± 0.45 |  | 

Sequence | protein stability index [1] | protein stability index [2] | protein stability index [3] | protein stability index [4]
LGDALAGPPRAPGRSGWPAGGAPG [HES6] | 3.88 ± 0.23 | 3.94 ± 0.44 |  | 
CASFIRTRLLLQFTQPQQTSFALE [C8orf76] | 2.46 ± 0.28 | 2.7 ± 0.58 |  | 
VRTMQNTNDVETARCTAGTLHNLS [CTNNB1] | 3.57 ± 0.33 | 3.81 ± 0.32 |  | 
LSHAGQKATAAFSNVGTAISKKFG [TPD52L1] | 3.73 ± 0.23 | 3.66 ± 0.21 |  | 
KIQNHGHRVLQRLEQRRQQASERE [FCHSD1] | 4.28 ± 0.28 | 4.51 ± 0.075 |  | 
KAPSTDDATWAAVAACTKEIDTQG [C10orf62] | 5.14 ± 0.2 | 5.11 ± 0.09 |  | 
ILREFEELHRRLDEEQQVLLSRLE [TRIM39] | 3.43 ± 0.3 | 3.63 ± 0.12 |  | 
MSIVIPLGVDTAETSYLEMAAGSE [KMT2E] | 2.76 ± 0.51 | 2.74 ± 0.39 |  | 
VIDAEPFIRCSLQCRDLVDEAKKF [KLHL12] | 2.58 ± 0.46 | 2.35 ± 0.065 |  | 
AVGYSSDSETLDLEEAEGAVGYQP [NFE2L1] | 5.24 ± 0.1 | 5.33 ± 0.21 |  | 
DIVDEDVKLMMSTLPKSLSLPTTA [MYBL2] | 3.9 ± 0.27 | 3.7 ± 0.27 |  | 
LLRRSVEGASSDNGCEVKNRKSIL [PHTF1] | 3.99 ± 0.17 | 4.05 ± 0.55 |  | 
KVIVVMRSLFIDRTIVKGYNENVY [MED27] | 2.77 ± 0.39 | 3.29 ± 0.33 |  | 
KMTPVKNYQAHQSRVTMILFVLEL [WDFY2] | 3.19 ± 0.39 | 2.88 ± 0.5 |  | 
LAVSNMGARSKGQCPEPPIVVHCS [PTPN9] | 3 ± 0.33 | 2.95 ± 0.28 |  | 
QLIVTARTTRGLDPLFGMCEKFLQ [INTS4] | 2.15 ± 0.4 | 2.06 ± 0.3 |  | 
SSDRSRDSSHERTESQLTPCIRNV [BTBD10] | 5.06 ± 0.065 | 5 ± 0.2 |  | 
DTPCTNRGLPLLKTDFGSCLLQPP [DLC1] | 3.41 ± 0.19 | 3.34 ± 0.34 |  | 
NTKAEMEMSLAEELNHGRQGENQE [FATE1] | 5.53 ± 0.16 | 5.64 ± 0.12 |  | 
CLVKGIFYHCSNDDEGDSYSDNPC [SPRY1] | 2.61 ± 0.23 | 2.89 ± 0.15 |  | 
